10 molecules from patent CN116262788A (TAIZE HUIKANG BIOMEDICAL CO LTD; BEIJING MIANYI FANGZHOU …, dated 2023) can be followed below.

The target in experiment [1] is 人CD27 (稳定表达人CD27的细胞系 HEK::CD27 细胞) (human) (UniProt P26842). Briefly: flow cytometry on cells expressing human CD27. A general note: Flow cytometry measures light scatter and fluorescence of single cells or particles in a stream.
Experiment [2] concerns the target T1, 人CD27蛋白 (Cat: 10039-H03H, Sino Biological Inc.) (human, UniProt P26842 21-192).
T1 construct: Bought protein coated on the SPR chip
T1 sequence (looked up): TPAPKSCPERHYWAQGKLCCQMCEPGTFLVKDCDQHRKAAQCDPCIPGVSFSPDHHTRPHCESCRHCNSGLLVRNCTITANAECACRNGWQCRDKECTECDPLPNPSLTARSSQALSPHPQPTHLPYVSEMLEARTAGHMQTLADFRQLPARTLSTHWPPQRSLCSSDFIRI
Briefly: SPR (Reichert4), human CD27 protein on chip, antibody as analyte, curve 5.00e-8.

Experiment [3] has as its target T1, 人CD27蛋白 (Cat: 10039-H03H, Sino …). Nature of the experiment: SPR (Reichert4), human CD27 protein on chip, antibody as analyte, curve 2.50e-8.
The target is the same in experiment [4]. Briefly: SPR (Reichert4), human CD27 protein on chip, antibody as analyte, curve 1.25e-8.
For experiment [5] the target is unchanged. Briefly: SPR (Reichert4), human CD27 protein on chip, antibody as analyte, curve printed 625e-9.
The target in experiment [6] is T2, 人CD27 (稳定表达人CD27的细胞系 HEK::CD27 细胞) (human, UniProt P26842 20-260).
T2 construct: whole, on cells; also called hCD27; 表达hCD27的细胞
T2 sequence (looked up): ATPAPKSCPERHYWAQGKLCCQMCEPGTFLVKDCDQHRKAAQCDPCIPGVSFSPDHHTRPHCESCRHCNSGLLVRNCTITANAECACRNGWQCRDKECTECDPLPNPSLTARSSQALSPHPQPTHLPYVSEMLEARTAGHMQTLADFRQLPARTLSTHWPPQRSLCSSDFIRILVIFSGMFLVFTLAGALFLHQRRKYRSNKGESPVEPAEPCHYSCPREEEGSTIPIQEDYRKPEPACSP
Nature of the experiment: flow cytometry on HEK::CD27 cells, 10 ng and 100 ng antibody.

Experiment [7] addresses T1, 人CD27蛋白 (Cat: 10039-H03H, Sino …). Briefly: SPR (Reichert4), human CD27 protein on chip, antibody as analyte, curve 6.25e-9.

B1: 鼠抗人CD27单克隆抗体6D8 (antibody, V domains shown)
VH: QIQLVQSGPELKKPGETVKISCKASGYTFTNYGMNWVKQAPGKGLKWMGWINTNTGEPTYADDFKGRFAFSLETSATTAYLQINNLKNEDTATYFCAREGDGFDSWGQGTTLTVSS
VL: QFVLTQSPAIMSASPGEKVTMTCSATSSVNYMHWYQQKSGTSPKRWIYDTSRLASGVPARFSGSGSGTSYSLTISSMEAEDAATYYCQQWNTNPWTFGGGTKLEIK
notes: it is not clear whether they are whole chains or variable regions only; also called 6D8抗体
As for B1, in experiment [1], the 结合率 is more than 85%. Moreover, the Kd in experiment [2], in experiment [3], in experiment [4] and in experiment [5] was 0.514 nM in each case. In addition, the koff in experiment [2], in experiment [3], in experiment [4] and in experiment [5] was 9.69e-05 s⁻¹ throughout. Also, the kon in experiment [2], in experiment [3], in experiment [4] and in experiment [5] was 188000 M⁻¹ s⁻¹ throughout.

B2: 6D8-G98A (人鼠嵌合抗体) (antibody, V domains shown)
VH: QIQLVQSGPELKKPGETVKISCKASGYTFTNYGMNWVKQAPGKGLKWMGWINTNTGEPTYADDFKGRFAFSLETSATTAYLQINNLKNEDTATYFCAREGDAFDSWGQGTTLTVSS
VL: QFVLTQSPAIMSASPGEKVTMTCSATSSVNYMHWYQQKSGTSPKRWIYDTSRLASGVPARFSGSGSGTSYSLTISSMEAEDAATYYCQQWNTNPWTFGGGTKLEIK
As to B2, the binding result in experiment [6] is listed as “binds”.

B3: Hu6D8-5 (antibody, human IgG4, V domains shown)
VH: EVQLVQSGAEVKKPGASVKVSCKASGYTFTNYGMNWVRQAPGQGLKWMGWINTNTGEPTYADDFKGRVTMTLDTSISTAYMELSRLRSDDTAVYYCAREGDGFDSWGQGTTVTVSS
VL: QIVLTQSPDFQSVTPKEKVTITCSATSSVNYMHWYQQKPDQSPKRWIYDTSRLASGVPSRFSGSGSGTDYTLTINSLEAEDAATYYCQQWNTNPWTFGGGTKVEIK
For B3, the binding result in experiment [6] was “binds”.

B4: Hu6D8-2 (antibody, human IgG4, V domains shown)
VH: EVQLVQSGAEVKKPGASVKVSCKASGYTFTNYGMNWVRQAPGQGLKWMGWINTNTGEPTYADDFKGRVTMTLDTSISTAYMELSRLRSDDTAVYYCAREGDGFDSWGQGTTVTVSS
VL: EIVLTQSPDFQSVTPKEKVTITCSATSSVNYMHWYQQKPDQSPKRWIYDTSRLASGVPSRFSGSGSGTDYTLTINSLEAEDAATYYCQQWNTNPWTFGGGTKVEIK
As to B4, the binding result in experiment [6] is given as “binds”.

B5: Hu6D8-4 (antibody, human IgG4, V domains shown)
VH: EVQLVQSGAEVKKPGASVKVSCKASGYTFTNYGMNWVRQAPGQGLKWMGWINTNTGEPTYADDFKGRVTMTLDTSISTAYMELSRLRSDDTAVYYCAREGDGFDSWGQGTTVTVSS
VL: QFVLTQSPDFQSVTPKEKVTITCSATSSVNYMHWYQQKPDQSPKRLIYDTSRLASGVPSRFSGSGSGTDYTLTINSLEAEDAATYYCQQWNTNPWTFGGGTKVEIK
Regarding B5, the binding result in experiment [6] is on record as “binds”.

B6: Hu6D8-3 (antibody, human IgG4, V domains shown)
VH: EVQLVQSGAEVKKPGASVKVSCKASGYTFTNYGMNWVRQAPGQGLKWMGWINTNTGEPTYADDFKGRVTMTLDTSISTAYMELSRLRSDDTAVYYCAREGDGFDSWGQGTTVTVSS
VL: QIVLTQSPDFQSVTPKEKVTITCSATSSVNYMHWYQQKPDQSPKRLIYDTSRLASGVPSRFSGSGSGTDYTLTINSLEAEDAATYYCQQWNTNPWTFGGGTKVEIK
Consider B6, for which the binding result in experiment [6] is “binds”.

B7: Hu6D8-12 (antibody, human IgG4, V domains shown)
VH: EVQLVQSGAEVKKPGASVKVSCKASGYTFTNYGMNWVRQAPGQGLKWMGWINTNTGEPTYADDFKGRFTFTLDTSISTAYMELSRLRSDDTAVYYCAREGDGFDSWGQGTTVTVSS
VL: QFVLTQSPDFQSVTPKEKVTITCSATSSVNYMHWYQQKPDQSPKRWIYDTSRLASGVPSRFSGSGSGTDYTLTINSLEAEDAATYYCQQWNTNPWTFGGGTKVEIK
As for B7, the binding result in experiment [6] was “binds”.

B8: Hu6D8-1 (antibody, human IgG4, V domains shown)
VH: EVQLVQSGAEVKKPGASVKVSCKASGYTFTNYGMNWVRQAPGQGLKWMGWINTNTGEPTYADDFKGRVTMTLDTSISTAYMELSRLRSDDTAVYYCAREGDGFDSWGQGTTVTVSS
VL: EIVLTQSPDFQSVTPKEKVTITCSATSSVNYMHWYQQKPDQSPKRLIYDTSRLASGVPSRFSGSGSGTDYTLTINSLEAEDAATYYCQQWNTNPWTFGGGTKVEIK
B8: the binding result in experiment [6] is “binds”.

B9: Hu6D8-6 (antibody, human IgG4, V domains shown)
VH: EVQLVQSGAEVKKPGASVKVSCKASGYTFTNYGMNWVRQAPGQGLKWMGWINTNTGEPTYADDFKGRVTMTLDTSISTAYMELSRLRSDDTAVYYCAREGDGFDSWGQGTTVTVSS
VL: QFVLTQSPDFQSVTPKEKVTITCSATSSVNYMHWYQQKPDQSPKRWIYDTSRLASGVPSRFSGSGSGTDYTLTINSLEAEDAATYYCQQWNTNPWTFGGGTKVEIK
As to B9, in experiment [6], the binding result was “binds”.

B10: Varlilumab (antibody, V domains shown)
VH: QVQLVESGGGVVQPGRSLRLSCAASGFTFSSYDMHWVRQAPGKGLEWVAVIWYDGSNKYYADSVKGRFTISRDNSKNTLYLQMNSLRAEDTAVYYCARGSGNWGFFDYWGQGTLVTVSS
VL: DIQMTQSPSSLSASVGDRVTITCRASQGISRWLAWYQQKPEKAPKSLIYAASSLQSGVPSRFSGSGSGTDFTLTISSLQPEDFATYYCQQYNTYPRTFGQGTKVEIKR
For B10, the dissociation constant (Kd) in experiment [2], in experiment [3], in experiment [4] and in experiment [7] was 0.00185 nM in each case. Also, the koff in experiment [2], in experiment [3], in experiment [4] and in experiment [7] was 2.14e-07 s⁻¹ each time. Further, the on-rate (kon) in experiment [2], in experiment [3], in experiment [4] and in experiment [7] was 116000 M⁻¹ s⁻¹ throughout.

In general, Kd refers to a measure of binding affinity in units of concentration. A higher Kd goes with a looser complex. As usually defined, the koff is a measure of how fast the partners let go of each other. In general, kon refers to the rate constant with which the complex forms. Low readings indicate slow association, high ones fast association.
